# A protein production outcome set (Wang et al. 2014)
# Assay: label from the status in PepcDB records
row,Sequence,protein production
1,MIMIDLSLIWIVIIAVGVFIYIVLDGFDLGIGILFPFIKDQHERDVMMNTVAPVWDGNETWMVLGGAGLFAAFPMVYSAVLSALYLPIILMVIALIFRGVAFEFRFKANRTKHLWDAAFIGGSIISSFLQGVILGAYIQGIHIVDGRYAGGGLDWLTPFSLFTGVGVVVVYAALGCGWLIMKTDHRLQLNMYSLMPKLMYALLIIFVCVSIYTPLSQPQIAARWFTQPQLTYFSPVPILVVIFTFLTVRACSKRQESMPFLYTLALVFLAYTGFLISIFPYIIPPSVTIWDAAAPANSQLFALIGALILIPIIIMYTIMAYWVFRDKVRVGDEGYH,failed
2,MIMLNKQGITISLCMIVRDEEETIARCLETVEKIVDEIIVVDTGSVDRTKEIVEKYTSNIYDFQWIDDFAAARNFSFSKATQEYILWLDADDVLLEDAQEALKLLKRELDPKIDAVSMPYHLAMDSNGKPLYCTKRNRLVKREKQFQWFGKVHEYLAISGEVFSSNVAITHKKEKKVTNRNLKIFQNTVAAGEELSPRDLFYYANESTDNQKYDDAVLLYETFLNQDEGWYEEKIYACGKLGDCYAKLGMWEKAIESCVKSFRYDVPRGENCTRIGYIYMEQEKYNEAIFWFKLATEVPMATESPFHSPASYTWLPYLQMCICYSRLGEQDKAYYYNELAASYVPNNAAIEYNRKYFRGVFDKPYKVLEHHHHHH,failed
3,MIMSKESIIFVGLFTVILSAVILMLSYTSSGQELNQYVKIEVQQGDTLWSIADQVADTKKINKNDFIEWVADKNQLQTSDIQPGDELVIPLKKKHQDAYELATVR,failed
4,MIPELPHAQLDWDDQGRPRSRVFDDVYFSSESGLDETRHVFIEQNRLGQRFAALADGERFVIGETGFGTGLNFLCAWQLFQQQAPTGARLHFVSVEKYPLSPADLQRALALWPELASFSAPLLEQYVAVHGGFQRIVLEGGRVILTLLIGDALEQLPQLDAQVDAWFLDGFAPAKNPDMWTAELFAELARLAAPGSTISTFTSTGWVRRLLNSAGFKMKRTPGIGHKWEVLRGEFLGWPEDAPAPARARPWFARPALGEKTALVIGGGLAGCASAASLAARGWQVQLLERHAELAREASGNPQGVLYLKLSAHGTALSQMILSGFGYTRRQLEHLQRGQDWDGCGVLQLAFNAKEAERQAQLAAAFPADLLHLLDQPQAQARAGIGLEHGGLFYPEGGWVHPPALCQWQASHPRIQVLAHREVLELRRVDEQWQAWDGDRMLASAAVVILAGAAEIKRFPASADLPLKRIRGQITRLPQTAQSQSLATVVCAEGYVAPARLGEHTLGASFDFKSQDLTPTSAEHAGNLEMLREISSDLLQRLGAEQLPLDSLQGRAAFRCTSPDYLPIVGPLADPLAFAETYAALGKDARQVPDLPCPWLDGLYINSGHGSRGLITAPLSGELLAAWLENEPLPLPRSVAEACHPNRFALRRLIRGKA,failed
5,MIPGMNAKQMKKMERQMKKMGMDMKDLKGVKEVIIRLEDKELVIPNAEVSLMNVMGQETYQVTGKAHEVAIDEELVIPDEDIEMVANQANVSEDEAKAALEDTNGDLAEAILKLNQ,failed
6,MIPLSESFESGIPAIWKTIDADGDGYNWMHLTNFTGQSGLCVSSASYIGGVGALTPDNYLITPELKLPTDALVEIIYWVCTQDLTAPSEHYAVYSSSTGNNAADFVNLLYEETLTAKRIQSPELIRGNRTQGVWYQRKVVLPNDTKYVAFRHFNSTDNFWLNLDEVSI,failed
7,MIPVFNITSNRGRLLQQISVGDIWGVGRQWANKLISRGIHTAYDLAMTNPHLLKKCFNAVLMRTAMELQGIACGGLEVLEHHHHHH,failed
8,MIPYLYVLAAAFLWGTSFVAGKIAFGVADAPLIVLARFAMAGLFWLPVFCRSVRSVPSSRWGALLLLSFLMIPATFLLQFMGLQYTSATSATLMIGFEPLMVMLVGWLIWREQMTALHLLLGTVALAGVLLVMGWPSGANFLGCLLVLLSTVVVAIWVRWSKIWMQSLSVNAFTALTTVLGTIMLIPFALFLTNDWQVNLSTQGASALLYLGVGCSLGAGWLWNMGMRSIPANAGGMFLALEPIFGVIFAVALLYEPLGATTLAGIGLVVIPVLVISVLPVLQARRLPEAC,failed
9,MIQAQTAAPPHAKVTAILLFTTLMWGGSFLFNKIGMREVPPVHFFFFRFALAALLMGGVCLPRLARLNRHIAVRGAVVGLALAAVNLTFVLGVSGTTISRAGYLNNLFVLFIPLLTFALWRERVDRVTFGGIALAVVGLWALASGGAEGFNQGDLLSTVCALFIAIHIIAVSRVLRDEDVYLVTFVQFVTVAAVGLVLCLVLPWPEFTIGRAGAWSLAYCALFPTVICFTLQNAYQRFTTPTRAGLIYTLDPVWSMLFGVFILGERLTPRELAGCVLILMAVAGPLLARLYLEQRHRRLYRLDGAEGT,failed
10,MIQEKHLTFTINLLVSLFFLTILIIPKGYNYAPIILSAIGLIYFIPLKKKLSFSSEDKKLIFSFLFYFFTFLLSIIINKDGIREIDNPSRLLLFIPLLLLFKNFPIKRKTILYAIPSSALITGCVALFQKFALGYEKPFPETMHIQMGNIAISLATFSIVITLHFFIKKQYKSTLFGFVAIILAIMTSALSGARGGWIGLPVVVGIILFLYKEFINKKLIITLIAIITIGLTALITSPKFGIEKRYNAAKSDIVSYLEKNNRNTSLGARFDMWENALIAIKEAPIFGHGSDGYDEFRHKQVKSKQMAKTTLNFGSLHNQYLESWVKRGLVGFIALILIILTPIFYFIKNLNTHNLETKCICILGIIHIVSHIFYFTSQSFLAHNSGNIFYFSAMLCFIV,failed
11,MIQITVVQIDNYGPWTVTPNPRRESDLQALQSRLYCDMNLQFGAHKGLAFYTRFDNIIAITNGIDLETHKRIQNSVKNRYPFTVSMAVASAETAYEAQKLATKTIQEYGSAQDDVRKEVLDVANEFVSNGYVQLAHVDINDITGKLTDLETAYDTYLSVQKTKLKLMEELKKYDSLGFFIGGDNFMCPCNGMNEKDFLCMFEDIKDSCGIELKAGIGIGKTAEDASNLADIGLEVIREGKTDSQVYTLKQEIDEQKNVPYNYMCPI,failed
12,MIQRTKAKVMGAPTPMAGLALGIASLGWSWENFAELHGYGQWISAGIASVLLVILATKFLLHNHLLREDLAHPVVGSVVPTFAMGTMVVSNSLGHFYPLAGDVLWLIAVVLHIVFLVSFVYHRAKDFELHHMVPSWFVPPVGIIVADVSFSGNPMLAPVAQGALTFGMVAYAIMLPMMIYRFMFTHEIPDAAKPTMAIMAAPASLSLAGYLTVTATPSPVIIAMLFGIAVLMTAIIYLAFFKLLRLPFSPGYAAFTFPMVIGATALFKMANWMELQGLAAHYVQQVRGLAGLELIVATFVVSYVALQYINNLLIQPRLMHAHHA,not failed
13,MIQSQINRNIRLDLADAILLSKAKKDLSFAEIADGTGLAEAFVTAALLGQQALPADAARLVGAKLDLDEDSILLLQMIPLRGCIDDRIPTDPTMYRFYEMLQVYGTTLKALVHEKFGDGIISAINFKLDVKKVADPEGGERAVITLDGKYLPTKPF,not failed
14,MIRALSMHLLDRLTIRLFHDERQKQFSGDHARSLGWSSTESQFLRFKTMTQAINFEQKTVLDLGCGYGDFKTFLDMSCCIKSYTGVDQQSSFIKQAKSLFKHHTNCEFIKADFSATTLPKADIVVASGSLNYRARNKTYHAKVIKEMYERAEEAVIFNLLNSEHFTSSSLLEAHDPQQVLKYCLSFCPDSELITDYANEDFTIVMRHSNSSKLEHHHHHH,not failed
15,MIREKALEFHKNNFPGNGKIEVIPKVSLESREELTLAYTPGVAEPCKEIARDPGKVYEYTSKGNLVAVVSDGSRILGLGNIGPLAGLPVMEGKALLFKRFGGVDAFPIMIKEQEPNKFIDIVKAIAPTFGGINLEDIASPKCFYILERLREELDIPVFHDDQQGTAAVVLAGLLNALKVVGKKISEITLALFGAGAAGFATLRILTEAGVKPENVRVVELVNGKPRILTSDLDLEKLFPYRGWLLKKTNGENIEGGPQEALKDADVLISFTRPGPGVIKPQWIEKMNEDAIVFPLANPVPEILPEEAKKAGARIVATGRSDYPNQINNLLGFPGIFRGALDVRARTITDSMIIAAAKAIASIVEEPSEENIIPSPLNPIVYAREARAVAEEAMKEGVARTKVKGEWVEEHTIRLIEFYENVIAPINKKRREYSKAITRA,not failed
16,MIRFTMMPGEDGDCLLLEYGDGTFLRRILLDGGRSGTYPRIRPTLAGLDGLVDVLVVTHVDQDHLLGVLALLNDPDRSVEFGDVWFNGFDHLLEFEGFGAQDGEKLTSALVEQKLPWNDAFGGLSVEVGRELVWFDDGSTVDVLSPDRGQLESLAPDWVKECAKHGLIPGRDPDEIPLVPGFEHFGGVNVEELAARPFRPDTSKTNLTSIGLLFEFEGKRIILTGDADDRRLVRSIRPRAEAEGGRLHVDVLKVAHHGSDHNLSKDLLDLIDCDRYLISTSGARHDHPNAIAVARILKHGGAKKEIVFNYRDRAAIWDVDSLKDRFGYTVTAPAPDAEDGFVSFEL,failed
17,MIRLGKMSDLDQILNLVEEAKELMKEHDNEQWDDQYPLLEHFEEDIAKDYLYVLEENDKIYGFIVVDQDQAEWYDDIDWPVNREGAFVIHRLTGSKEYKGAATELFNYVIDVVKARGAEVILTDTFALNKPAQGLFAKFGFHKVGEQLMEYPPYDKGEPFYAYYKNLKE,failed
18,MIRVLFFIRMTMSRTIQRICLFLFCLPVFGSCMKWDYGEMEDFSVSASGLFITNEGNFQYSNATLSYYDPATCEVENEVFYRANGFKLGDVAQSMVIRDGIGWIVVNNSHVIFAIDINTFKEVGRITGFTSPRYIHFLSDEKAYVTQIWDYRIFIINPKTYEITGYIECPDMDMESGSTEQMVQYGKYVYVNCWSYQNRILKIDTETDKVVDELTIGIQPTSLVMDKYNKMWTITDGGYEGSPYGYEAPSLYRIDAETFTVEKQFKFKLGDWPSEVQLNGTRDTLYWINNDIWRMPVEADRVPVRPFLEFRDTKYYGLTVNPNNGEVYVADAIDYQQQGIVYRYSPQGKLIDEFYVGIIPGAFCWK,failed
19,MISDIRKDAEVRMDKCVEAFKTQISKIRTGRASPSLLDGIVVEYYGTPTPLRQLASVTVEDSRTLKINVFDRSMSPAVEKAIMASDLGLNPNSAGSDIRVPLPPLTEERRKDLTKIVRGEAEQARVAVRNVRRDANDKVKALLKDKEISEDDDRRSQDDVQKLTDAAIKKIEAALADKEAELMQF,not failed
20,MISDLPDDLESEILSRVPTKSLAKLQTMGNTRLVVWDSSTGETRWIKPRTRFRNDDYYGLGYVNSKSSGHSFKILRSCYYRNDQKQWVAEFEIYEFGSDTWRVLDYFTHDYGVFSSGGPLKRNTYWVAGDKEMGMFMLYFDFTRERFGHFPLPFKSFNREDTASLSVVREEKLSVLHQKILEFSNEMKIWLTNKIDETIELSWSNFVLTVDYDKFNLPSVVNVASFLLDEENKVAVCSDIDVDDENRTRVYVVGEDIYKQVYKDTTKASYFNCSTSCSIYW,failed
21,MISGFESIQLTTLILIVVAGFAAGWVDAVVGGGGLIQLPALLLVPGITPVQALATNKMGSIFGTTTSAVTYYRRVGPDLKTAVPMAVIALAGSFGGAILAASLPASVFKPIIVLALIAVAIFTALRPGAGELTALRHDGHKHYVVACLIGAVIGFYDGLIGPGTGSFLVIALVSAMGYAFLEASAKAKIVNMATNAGALIFFLPHGSLLWGVGLILGLANMAGGYLGARTAVARGSKFVRLVFLMVVAALIIKLGMDVWNENFAA,failed
